Data published in patent US20150202287A1, “COMBINATION THERAPIES COMPRISING ANTI-ERBB3 AGENTS” (Merrimack Pharmaceuticals, Inc., priority 2012, published 2015).
pIC50: −log10 of the molar value.

Experiments:
[1] = system: NCI-N87 cells; experiment: T-DM1 and heregulin dose matrix cell viability, NCI-N87; assay type: cell-based; details: for cell viability: T-DM1 0 μg/ml, with MM-111 1 μM, 72 h
Description: Cells were allowed to adhere 16-20 hours at +37° C., 5% CO2. Cells were stimulated for 4 hours by adding 5 μl of culture media containing recombinant human NRG-1-β1 EGF domain (HRG1) bringing the final HRG1 stimulation concentration to 0, 0.313, 0.625, 1.25, 2.5, 5 or 10 nM. […] All conditions were assayed in biological quadruplicates. Cells were incubated for 72 h at +37° C., 5% CO2. Cell viability was determined by CellTiter-Glo® Luminescent Cell Viability Assay by adding 20 μl of reconstituted CellTiter-Glo reagent per well, incubating plated for 10 minutes at RT in an orbital shaker and reading the luminescence signal using Biotek™ Synergy H1 Hybrid Reader.

[2] = system: phospho-ErbB3 (pErbB3); experiment: Cell signaling assay, pErbB3 ELISA, ZR75-30; assay type: cell-based; details: ZR75-30 cells, stimulation with 5 nM heregulin for 10 min; read-out: IC50, reduction of pErbB3 levels
Description: (§1) Cell lysates are probed for phospho-ErbB3 (pErbB3), and phospho-AKT (pAKT) by ELISA as described previously (Schoeberl et al, 2009) Inhibitor IC50 values are calculated by fitting dose-response data to a 4-parameter sigmoidal curve (GraphPad Prism®, GraphPad Software, Inc., La Jolla, Calif.).
(§2) CRL-1504®), cells were incubated with serial dilutions of either inhibitor for 15 minutes, 1 hour, 4 hours, and 24 hours followed by stimulation with 5 nM heregulin for 10 min Amounts of pAKT and pErbB3 were measured by ELISA essentially as described.

[3] = system: ErbB2 and ErbB3; experiment: Affinity of MM-111 antigen-binding sites
[4] = system: phospho-ErbB3 (pErbB3); assay type: cell-based; details: up to 24 hours incubation
Description: as §1
Model-generated dose-response curves overlay the experimental data (FIG. 7a). […] Untreated and heregulin-stimulated cells were probed for pErbB3 and pAKT and the IC50 was calculated (FIG. 7b).
as §2

[5] = system: phospho-AKT (pAKT); experiment: Cell signaling assay, pAKT ELISA, ZR75-30; assay type: cell-based; details: ZR75-30 cells, stimulation with 5 nM heregulin for 10 min; read-out: IC50, reduction of pAKT levels
Description: as §1, §2

Substance	activity of T-DM1 with exogenous HRG ([1]; HRG 0.313-10 nM)	pIC50 [2]	cell viability ([1]; HRG 0 nM)	cell viability ([1]; HRG 0.313 nM)	cell viability ([1]; HRG 0.625 nM)	cell viability ([1]; HRG 1.25 nM)	cell viability ([1]; HRG 2.5 nM)	cell viability ([1]; HRG 5 nM)	cell viability ([1]; HRG 10 nM)	affinity of ErbB2 antigen-binding site relative to ErbB3 antigen-binding site [3]	inhibition of heregulin-induced ErbB3 activation relative to lapatinib [4]	pIC50 [5]
ado-trastuzumab emtansine [T-DM1, reference compound]	exogenous HRG decreases the activity of T-DM1											
MM-111		8.30	100 % of control	101.4158 % of control	105.024 % of control	110.2781 % of control	118.0867 % of control	126.5145 % of control	146.1417 % of control	about 30 times	superior to lapatinib by greater than an order of magnitude	8.40
